Where a chain is given by its changes, count along the chain named.
B1: Nb E1 (HA-tagged, in periplasmic extract) (VHH)
VHH: QVQLQESGGGLVQAGGSLRLSCATSGSIFSIISMGWYRQAPGKQRELVALVFRGGSTVYADSVKGRFTISGDIAKNTVYLQMDSLKPEDTAVYYCNVKSIGTAQYWGQGTQVTVSS
notes: source: E. coli WK6 (pHEN4), crude periplasmic extract
B2: Nb E5 (HA-tagged, in periplasmic extract) (VHH)
VHH: B1 VHH with A14P, N76S, V97A, S99P
notes: as for B1
B3: Nb E2 (HA-tagged, in periplasmic extract) (VHH)
VHH: B1 VHH with V112I
notes: as for B1
B4: Nb E6 (HA-tagged, in periplasmic extract) (VHH)
VHH: B1 VHH with N76S, V97A, S99P
notes: as for B1
B5: Nb G1 (HA-tagged, in periplasmic extract) (VHH)
VHH: QVQLQESGGGLVQPGGSLRLSCAASGSISSFNFMGWYRQAPGKQRELVALSTNSGVTNVAGSVKGRFTISRDNAKTTVYLQMNSLKPEDTAVYYCRVGAMGNLYWGQGTQVTVSS
notes: as for B1
B6: Nb G2 (HA-tagged, in periplasmic extract) (VHH)
VHH: B5 VHH with A23V
notes: as for B1
B7: Nb G3 (HA-tagged, in periplasmic extract) (VHH)
VHH: B5 VHH with P14T
notes: as for B1
B8: Nb G4 (HA-tagged, in periplasmic extract) (VHH)
VHH: B5 VHH with P14A
notes: as for B1
B9: Nb L1 (HA-tagged, in periplasmic extract) (VHH)
VHH: VQAGGSLRLSCAASGYRYCRYDMSWYRQAPGKEREFVSAIDSYGSPTYADTVLGRFTISRDNAKNTVYLQMNSLKAEDTAMYYCKIDSTGWSSRCGKTYWGQGTQVTVSS
notes: as for B1
B10: Nb C7 (HA-tagged, in periplasmic extract) (VHH)
VHH: QVQLQESGGGSVQAGESLTLSCTASGSSLSHKSVGWWRQTPGNQRELVALVASGNNTNYVDSVKGRFTVSRDNAKNTMYLQMNSLKPEDTAVYYCRILSVNGIWYWGQGTQVTVSS
notes: as for B1
B11: Nb D1 (HA-tagged, in periplasmic extract) (VHH)
VHH: QVQLQESGGGLVQAGGSLRLSCAASGITVSINAMAWYRQPPGKQRELVALIIGGSTRYADSVKGRFTISRDNAKNTVYLQMNSLKPEDTAVYACNTRAYWGQGTQVTVSS
notes: as for B1
B12: Nb C6 (HA-tagged, in periplasmic extract) (VHH)
VHH: QVQLQESGGGLVQAGDSLRLSCAASGSTVSSSMMAWWRQTPGNQRELVALVASGNNTNYVDSVKGRFTVSRDNAKNTMYLQMNSLKPEDTAVYYCRILSVNGIWYWGQGTQVTVSS
notes: as for B1
B13: Nb C10 (HA-tagged, in periplasmic extract) (VHH)
VHH: B12 VHH with A14T, D16G, M33T, N55G, V100M
notes: as for B1
B14: Nb C11 (HA-tagged, in periplasmic extract) (VHH)
VHH: B12 VHH with A14T, D16G, M33T, N55G
notes: as for B1
B15: Nb C3 (HA-tagged, in periplasmic extract) (VHH)
VHH: B12 VHH with A14T, D16G
notes: as for B1
B16: Nb C12 (HA-tagged, in periplasmic extract) (VHH)
VHH: B12 VHH with A14T, D16G, M33T, N55G, P87A
notes: as for B1
B17: Nb C13 (HA-tagged, in periplasmic extract) (VHH)
VHH: B12 VHH with A14T, D16G, M33T, W37Y, E46D, A52G, N55G, T57I, R71I
notes: as for B1
B18: Nb C1 (HA-tagged, in periplasmic extract) (VHH)
VHH: B12 VHH with A14T, D16G, S53R
notes: as for B1
B19: Nb C14 (HA-tagged, in periplasmic extract) (VHH)
VHH: B12 VHH with A14T, D16G, S30G, M33T, A52G, S53L, N55G, R71I, K75E, P87F
notes: as for B1
B20: Nb C9 (HA-tagged, in periplasmic extract) (VHH)
VHH: B12 VHH with D16E, A24G, M33T, N55G, V100M
notes: as for B1
B21: Nb M1 (HA-tagged, in periplasmic extract) (VHH)
VHH: VQAGDSLRLACTLFKYPTNNLCLAWFRQAPGKEREGVAALNTDGVGTYYAKSVEGRFTISQDKSKNEGYLQMDNLKPEDTAIYYCAADPTSRCNNYVQGRWWHEIGSRVWDWGQGTQVTVSS
notes: as for B1
B22: Nb C15 (HA-tagged, in periplasmic extract) (VHH)
VHH: QVQLQESGGGLVQTGGSLRVSCAVSGSTVSRSTMAWWRQTPGNQRELVALVDSGGKSNYVDSVKGRFTISTDNAKNTMYLQMNSLKPEDTAVYYCRILSVQGIWYWGQGTQVTVSS
notes: as for B1
B23: Nb C16 (HA-tagged, in periplasmic extract) (VHH)
VHH: B22 VHH with T14A, R19K, R31S, Q101K
notes: as for B1
B24: Nb G5 (HA-tagged, in periplasmic extract) (VHH)
VHH: QVQLQESGGGLVQPGGSLRLSCAASGSFFRTYIVSWYRQAPGKRREAVAVMSNSGNTNYADSVKGRFTISRDNAVNTVYLQMNSLKPEDTAVYYCNLLKVTVPPANYWGQGTQVTVSS
notes: as for B1
B25: Nb G6 (HA-tagged, in periplasmic extract) (VHH)
VHH: B24 VHH with G16E, A23V
notes: as for B1
B26: Nb G7 (HA-tagged, in periplasmic extract) (VHH)
VHH: B24 VHH with P14S
notes: as for B1
B27: Nb A1 (HA-tagged, in periplasmic extract) (VHH)
VHH: QVQLQESGGGLVQPGGSLRLSCAASGFTLDYYAIGWFRQAPGKEREGVSCISSSDGSTYYADSVKGRFTISRDNAKNTVYLQMSSLKPEDTAVYYCGISGSCLLEDYGMDYWGKGTQVTVSS
notes: as for B1
B28: Nb I1 (HA-tagged, in periplasmic extract) (VHH)
VHH: QVQLQESGGGLVQAGGSLRLSCAASGRTFRRYDMGWFRQAPGKEREFVAASTWSADDTYYAGSVKGRFTISRDNAKNTVYLQMNSLKPEDTAVYYCAAGETRKYGFRTTEGYYDSWGQGTQVTVSS
notes: as for B1
B29: Nb B1 (HA-tagged, in periplasmic extract) (VHH)
VHH: QVQLQESGGGLVHPGGSLRLSCAASGFSLDNYAIGWFRQAPGKEREGVSCISSGSEGRRYYADFVKGRFTISRDNAKNTAFLQMNSLKPEDTADYYCATVGFCSSQYGMEFVGDYWGQGTQVTVSS
notes: as for B1

Legend:
[1] = target: T1, Mouse PD-L1 Fc-fusion protein (R&D Systems, 1019-B7) (Mus musculus, UniProt Q9EP73); test: SPR; Biacore T200, 25°C, HBS (0.01 M HEPES pH 7.4, 0.15 M NaCl, 3 mM EDTA, 0.005% Tween 20); mouse or human PD-L1 Fc-fusion protein amine-coupled on a CM5 chip (650-900 RU); Nb in crude periplasmic extract as analyte, its concentration estimated by CFCA; 9 dilutions, 120 s association, 160 s dissociation; 1-to-1 fit; affinity estimations; conditions: one partner purified
T1 construct: programmed death-ligand 1 (PD-L1, B7-H1, CD274), mouse; also called moPD-L1; B7-H1; source: bought: R&D Systems (1019-B7)
T1 sequence (Q9EP73 19-239): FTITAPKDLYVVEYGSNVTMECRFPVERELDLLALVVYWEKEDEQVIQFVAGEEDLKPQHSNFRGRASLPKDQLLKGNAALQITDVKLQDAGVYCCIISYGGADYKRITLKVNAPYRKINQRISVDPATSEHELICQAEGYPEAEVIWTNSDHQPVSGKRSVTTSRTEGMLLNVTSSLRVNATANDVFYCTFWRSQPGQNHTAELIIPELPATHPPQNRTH

[2] = target: T2, Human PD-L1 Fc-fusion protein (R&D Systems, 156-B7) (Homo sapiens, UniProt Q9NZQ7); test: as above; conditions: one partner purified
T2 construct: programmed death-ligand 1 (PD-L1, B7-H1, CD274), human; also called huPD-L1; B7-H1; source: bought: R&D Systems (156-B7)
T2 sequence (Q9NZQ7 19-238): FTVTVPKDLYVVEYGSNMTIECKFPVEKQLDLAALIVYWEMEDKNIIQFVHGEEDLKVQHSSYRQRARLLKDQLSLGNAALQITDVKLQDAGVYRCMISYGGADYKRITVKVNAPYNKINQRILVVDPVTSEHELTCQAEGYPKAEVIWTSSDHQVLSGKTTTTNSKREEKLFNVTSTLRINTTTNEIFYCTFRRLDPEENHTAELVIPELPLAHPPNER

Row | Binder | Kd [1] | Kd [2]
1 | B1 | 2.3 nM | 12 nM
2 | B2 | 14 nM | 54 nM
3 | B3 | 5.6 nM | 94 nM
4 | B4 | 6.9 nM | 217 nM
5 | B5 | 4.4 nM | 50 nM
6 | B6 | 5.5 nM | 158 nM
7 | B7 | 5 nM | 907 nM
8 | B8 | 6.2 nM | 74 nM
9 | B9 | 15 nM | 34 nM
10 | B10 | 3.1 nM | 27 nM
11 | B11 | 12 nM | 291 nM
12 | B12 | 0.289 nM | 94 nM
13 | B13 | 6.7 nM | 141 nM
14 | B14 | 12 nM | 246 nM
15 | B15 | 0.14 nM | 32 nM
16 | B16 | 11.4 nM | 181 nM
17 | B17 | 33 nM | 162 nM
18 | B18 | 0.327 nM | 143 nM
19 | B19 | 1.8 nM | 71 nM
20 | B20 | 2.2 nM | 44 nM
21 | B21 | 13 nM | 17 nM
22 | B22 | 6.5 nM | 335 nM
23 | B23 | 15 nM | 520 nM
24 | B24 | 3.9 nM | 16 nM
25 | B25 | 5 nM | 21 nM
26 | B26 | 3.4 nM | 129 nM
27 | B27 |  | 23 nM
28 | B28 | 67 nM | 322 nM
29 | B29 | 123 nM | 6 nM

— paper PMC5522039, “Non-invasive assessment of murine PD-L1 levels in syngeneic tumor models by nuclear imaging with nanobody tracers” (Oncotarget, 2017)
